Where two headings read alike, the source gives them in different places.
How the values were obtained:
Human CD3 epsilon-delta = target: T1, Human CD3 epsilon-delta (human); assay: SPR, anti-human IgG capture, 25 C
T1 construct: Single-chain epsilon-linker-delta with His6; also called huCD3
T1 chain: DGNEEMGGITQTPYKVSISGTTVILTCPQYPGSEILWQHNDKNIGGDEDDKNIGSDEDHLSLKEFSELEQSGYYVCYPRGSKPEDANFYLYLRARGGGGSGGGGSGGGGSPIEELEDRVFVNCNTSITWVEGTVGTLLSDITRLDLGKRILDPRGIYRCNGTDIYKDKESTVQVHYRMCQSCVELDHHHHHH

[1] = target: T2, Murine GUCY2C-ECD cleaved (mouse, UniProt Q3UWA6 20-433); assay: SPR, GUCY2c directly immobilized, 25 C
T2 sequence: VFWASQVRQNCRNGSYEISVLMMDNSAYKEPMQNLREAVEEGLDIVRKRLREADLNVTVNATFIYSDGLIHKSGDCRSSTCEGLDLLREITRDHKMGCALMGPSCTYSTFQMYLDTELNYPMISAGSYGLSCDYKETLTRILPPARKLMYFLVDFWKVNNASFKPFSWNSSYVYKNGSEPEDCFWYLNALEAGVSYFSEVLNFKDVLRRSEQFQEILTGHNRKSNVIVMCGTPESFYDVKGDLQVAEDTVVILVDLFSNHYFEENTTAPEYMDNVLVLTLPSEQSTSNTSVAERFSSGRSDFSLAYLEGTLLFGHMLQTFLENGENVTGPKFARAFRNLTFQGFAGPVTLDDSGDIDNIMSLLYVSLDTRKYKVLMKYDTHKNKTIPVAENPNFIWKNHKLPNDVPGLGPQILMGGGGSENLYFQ

[2] = target: T3, Human GUCY2C full length (SEQ ID NO: 224), recombinant protein (human, UniProt P25092 24-430, limits assumed); assay: SPR, GUCY2c directly immobilized, 25 C
T3 construct: also called huGUCY2C; biotinylated human GUCY2c
T3 sequence (P25092 24-430 F281L limits assumed): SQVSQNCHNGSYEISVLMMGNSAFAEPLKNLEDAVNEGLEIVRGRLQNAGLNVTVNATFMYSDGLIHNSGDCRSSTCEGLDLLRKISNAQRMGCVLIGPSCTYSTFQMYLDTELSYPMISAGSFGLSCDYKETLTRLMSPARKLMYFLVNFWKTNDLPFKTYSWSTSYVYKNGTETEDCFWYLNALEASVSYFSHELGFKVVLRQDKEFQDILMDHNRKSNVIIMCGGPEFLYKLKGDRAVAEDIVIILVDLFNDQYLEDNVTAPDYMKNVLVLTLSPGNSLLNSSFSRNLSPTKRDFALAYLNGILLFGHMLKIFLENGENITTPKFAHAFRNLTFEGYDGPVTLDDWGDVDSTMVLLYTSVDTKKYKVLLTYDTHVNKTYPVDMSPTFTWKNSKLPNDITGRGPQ

[3] = target: T4, Human GUCY2c on tumor cells (T84, HT55) (human, UniProt P25092 24-1073); assay: flow cytometry titration on T84 tumor cells (PE-A Geo Mean against Ab in nM)
T4 construct: Endogenous receptor; also called GUCY2c expressing cell lines; T84 cells expressing human GUCY2c
T4 sequence (P25092 24-1073 limits assumed): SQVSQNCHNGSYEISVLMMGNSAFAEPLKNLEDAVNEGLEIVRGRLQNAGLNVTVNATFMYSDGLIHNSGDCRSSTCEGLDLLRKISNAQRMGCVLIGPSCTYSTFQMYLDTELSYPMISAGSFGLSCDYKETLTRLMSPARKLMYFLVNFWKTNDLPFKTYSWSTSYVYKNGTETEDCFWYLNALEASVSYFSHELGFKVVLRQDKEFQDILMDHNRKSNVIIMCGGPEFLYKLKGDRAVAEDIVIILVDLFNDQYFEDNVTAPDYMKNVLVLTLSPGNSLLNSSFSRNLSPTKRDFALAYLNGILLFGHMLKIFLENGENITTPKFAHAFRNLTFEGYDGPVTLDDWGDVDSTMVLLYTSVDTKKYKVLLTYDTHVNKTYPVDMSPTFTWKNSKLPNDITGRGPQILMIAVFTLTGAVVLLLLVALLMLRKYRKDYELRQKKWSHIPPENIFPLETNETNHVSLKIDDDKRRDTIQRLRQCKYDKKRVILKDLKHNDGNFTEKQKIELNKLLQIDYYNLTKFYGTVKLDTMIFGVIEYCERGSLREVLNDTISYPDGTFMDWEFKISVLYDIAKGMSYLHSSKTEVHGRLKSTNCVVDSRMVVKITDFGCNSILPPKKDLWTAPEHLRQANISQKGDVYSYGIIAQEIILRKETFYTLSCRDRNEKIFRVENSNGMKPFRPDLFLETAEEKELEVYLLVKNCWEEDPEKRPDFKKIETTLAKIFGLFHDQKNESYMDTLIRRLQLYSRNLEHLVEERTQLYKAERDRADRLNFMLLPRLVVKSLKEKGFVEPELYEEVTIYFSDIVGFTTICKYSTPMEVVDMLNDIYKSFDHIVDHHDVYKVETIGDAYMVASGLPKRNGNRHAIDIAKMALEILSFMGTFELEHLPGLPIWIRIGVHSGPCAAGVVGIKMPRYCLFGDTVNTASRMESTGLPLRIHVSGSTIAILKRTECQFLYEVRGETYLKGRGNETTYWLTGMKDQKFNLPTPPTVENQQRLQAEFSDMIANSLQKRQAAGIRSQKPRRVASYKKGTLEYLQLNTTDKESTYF

[4] = target: T5, Human CD3 on naive human T cells (human, UniProt P07766 23-207); assay: flow cytometry titration on naive human T cells (PE-A Geo Mean against Ab in nM)
T5 construct: whole, on cells; on cells it stands in the CD3/TCR complex

[5] = target: T3, Human GUCY2C full length (SEQ ID NO: …); assay: SPR, anti-human IgG capture, 25 C
[6] = target: T4, Human GUCY2c on tumor cells (T84, HT55); assay: cell-based or functional assay
Human GUCY2C ECD-muIgG2a = target: T6, Human GUCY2C ECD-muIgG2a (human); assay: huCD3-huGUCY2C sandwich ELISA (CD3 coated)
T6 construct: also called human GUCY2c ECD-mouse IgG2a Fc fusion protein; huGUCY2c-mIgG2a
T6 sequence (chain, as listed by the source limits assumed): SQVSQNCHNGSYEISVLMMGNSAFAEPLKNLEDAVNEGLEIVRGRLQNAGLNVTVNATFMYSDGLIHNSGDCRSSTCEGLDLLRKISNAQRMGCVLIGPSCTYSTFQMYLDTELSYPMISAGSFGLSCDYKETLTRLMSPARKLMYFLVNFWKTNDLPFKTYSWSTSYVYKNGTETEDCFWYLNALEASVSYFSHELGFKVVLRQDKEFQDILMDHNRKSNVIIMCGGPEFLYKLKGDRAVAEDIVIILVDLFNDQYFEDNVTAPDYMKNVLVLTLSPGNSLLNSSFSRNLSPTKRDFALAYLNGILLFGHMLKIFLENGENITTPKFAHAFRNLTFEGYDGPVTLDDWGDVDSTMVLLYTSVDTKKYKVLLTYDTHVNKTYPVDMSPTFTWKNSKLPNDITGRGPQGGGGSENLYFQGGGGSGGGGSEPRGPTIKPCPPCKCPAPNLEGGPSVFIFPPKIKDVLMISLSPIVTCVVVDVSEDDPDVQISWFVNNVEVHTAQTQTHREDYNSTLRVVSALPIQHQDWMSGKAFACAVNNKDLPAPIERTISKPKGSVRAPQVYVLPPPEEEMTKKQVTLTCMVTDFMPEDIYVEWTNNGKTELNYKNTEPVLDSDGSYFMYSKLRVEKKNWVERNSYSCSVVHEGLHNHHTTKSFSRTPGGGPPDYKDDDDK

[7] = target: T7, Cynomolgus CD3 epsilon-delta (cynomolgus); assay: SPR, printed anti-His capture, 25 C (Table 33D)
T7 chain: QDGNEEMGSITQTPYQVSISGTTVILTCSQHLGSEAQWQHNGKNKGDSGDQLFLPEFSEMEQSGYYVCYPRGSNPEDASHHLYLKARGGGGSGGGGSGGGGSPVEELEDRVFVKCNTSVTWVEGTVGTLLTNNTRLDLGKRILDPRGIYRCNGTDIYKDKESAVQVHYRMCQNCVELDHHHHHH

[8] = target: T4, Human GUCY2c on tumor cells (T84, HT55); assay: cell-based or functional assay; remark: listed apart in the source
[9] = target: T8, Cynomolgus GUCY2C-ECD Cleaved (cynomolgus, UniProt P25092 24-430 (human entry)); assay: SPR, anti-human IgG capture, 25 C
T8 construct: also called CyGUCY2C
T8 chain: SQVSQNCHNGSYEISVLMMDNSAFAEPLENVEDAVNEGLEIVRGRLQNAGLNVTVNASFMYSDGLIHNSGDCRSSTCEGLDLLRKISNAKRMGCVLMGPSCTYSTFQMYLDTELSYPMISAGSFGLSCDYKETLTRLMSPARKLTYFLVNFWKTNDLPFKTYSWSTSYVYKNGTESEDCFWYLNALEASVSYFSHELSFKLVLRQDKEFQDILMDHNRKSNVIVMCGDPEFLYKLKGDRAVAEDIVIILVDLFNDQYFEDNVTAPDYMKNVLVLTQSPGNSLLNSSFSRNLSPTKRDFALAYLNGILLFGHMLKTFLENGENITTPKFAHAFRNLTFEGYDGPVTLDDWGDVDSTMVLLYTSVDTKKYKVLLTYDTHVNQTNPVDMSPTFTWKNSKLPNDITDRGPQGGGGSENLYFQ

GUCY2C-1608 = target: T9, GUCY2C-1608; assay: competition DELFIA ELISA: peptide 19 in solution competes with the plate-bound full GUCY2c extracellular domain for GUCY2C-1608
T9 construct: also called GUCY2c CD3 bispecific

[10] = target: T10, Murine GUCY2C full length on 300.19 cells (mouse, UniProt Q3UWA6 20-1072); assay: IHC on cell pellets
T10 construct: also called mouse GUCY2c

[11] = target: T11, Cynomolgus GUCY2C full length on 300.19 cells (cynomolgus, UniProt P25092 24-1073 (human entry)); assay: IHC on cell pellets
T11 construct: also called cyno GUCY2c
T11 chain: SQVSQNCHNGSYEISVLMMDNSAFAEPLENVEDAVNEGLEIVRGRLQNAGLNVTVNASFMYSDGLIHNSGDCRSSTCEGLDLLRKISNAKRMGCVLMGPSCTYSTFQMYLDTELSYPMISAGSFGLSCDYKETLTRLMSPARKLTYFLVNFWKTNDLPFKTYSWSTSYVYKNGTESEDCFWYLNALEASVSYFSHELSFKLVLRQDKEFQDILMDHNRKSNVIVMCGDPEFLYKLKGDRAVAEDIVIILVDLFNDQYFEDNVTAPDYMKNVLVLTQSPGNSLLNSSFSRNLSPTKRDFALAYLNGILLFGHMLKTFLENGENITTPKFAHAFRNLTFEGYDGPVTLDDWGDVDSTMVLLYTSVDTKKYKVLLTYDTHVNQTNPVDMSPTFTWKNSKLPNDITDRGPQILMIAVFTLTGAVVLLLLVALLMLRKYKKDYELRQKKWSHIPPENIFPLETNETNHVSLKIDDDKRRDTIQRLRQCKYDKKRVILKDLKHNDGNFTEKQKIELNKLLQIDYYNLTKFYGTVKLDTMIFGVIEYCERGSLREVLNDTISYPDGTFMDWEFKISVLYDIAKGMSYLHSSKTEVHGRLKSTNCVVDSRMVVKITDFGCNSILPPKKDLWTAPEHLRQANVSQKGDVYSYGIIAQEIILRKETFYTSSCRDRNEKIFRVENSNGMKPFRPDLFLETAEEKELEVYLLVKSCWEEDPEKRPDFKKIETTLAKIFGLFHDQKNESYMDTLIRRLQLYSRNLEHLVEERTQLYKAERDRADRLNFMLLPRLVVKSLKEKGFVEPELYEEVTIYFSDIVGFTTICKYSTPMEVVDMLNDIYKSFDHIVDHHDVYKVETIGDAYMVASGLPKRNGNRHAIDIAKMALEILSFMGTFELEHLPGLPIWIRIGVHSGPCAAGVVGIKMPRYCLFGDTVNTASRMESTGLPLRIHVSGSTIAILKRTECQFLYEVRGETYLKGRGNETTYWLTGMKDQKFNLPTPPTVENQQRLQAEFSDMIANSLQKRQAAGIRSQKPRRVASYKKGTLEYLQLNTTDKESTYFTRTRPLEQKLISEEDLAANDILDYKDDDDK

B1: GUCY2C-0247 (bispecific antibody)
chain 1: DIQLTQSPSSLSASVGDRVTITCRASESVDYYGTSLMQWYQQKPGKPPKLLIYAASNVESGVPSRFSGSGSGTDFTLTISSLQPEDFATYYCQQTRKVYTFGQGTKLEIKGGGSGGGGEVQLVESGGGLVQPGGSLRLSCAASGFTFSDYYMTWVRQAPGKGLEWVAFIRNRARGYTSDHNPSVKGRFTISRDNAKNSLYLQMNSLRAEDTAVYYCARDRPSYYVLDYWGQGTTVTVSSGCPPCPAPEAAGAPSVFLFPPKPKDTLMISRTPEVTCVVVDVSHEDPEVKFNWYVDGVEVHNAKTKPREEQYNSTYRVVSVLTVLHQDWLNGKEYKCKVSNKALPAPIEKTISKAKGQPREPQVCTLPPSREEMTKNQVSLWCLVKGFYPSDIAVEWESNGQPENNYKTTPPVLDSDGSFFLYSKLTVDKSRWQQGNVFSCSVMHEALHNHYTQKSLSLSPG
chain 2: DIVMTQSPDSLAVSLGERATINCKSSQSLFNVRSRKNYLAWYQQKPGQPPKLLISWASTRESGVPDRFSGSGSGTDFTLTISSLQAEDVAVYYCKQSYDLFTFGSGTKLEIKGGGSGGGGEVQLVESGGGLVQPGGSLRLSCAASGYTFTSYWMHWVRQAPGKGLEWIGEIKPSNGLTNYIEKFKNRFTISVDKAKNSAYLQMNSLRAEDTAVYYCTRTITTTEGYWFFDVWGQGTLVTVSSGCPPCPAPEAAGAPSVFLFPPKPKDTLMISRTPEVTCVVVDVSHEDPEVKFNWYVDGVEVHNAKTKPREEQYNSTYRVVSVLTVLHQDWLNGKEYKCKVSNKALPAPIEKTISKAKGQPREPQVYTLPPCREEMTKNQVSLSCAVKGFYPSDIAVEWESNGQPENNYKTTPPVLDSDGSFFLVSKLTVDKSRWQQGNVFSCSVMHEALHNHYTQKSLSLSPG
Kd (Human CD3 epsilon-delta): 3.34 nM | koff (Human CD3 epsilon-delta): 0.000985 s⁻¹ | kon (Human CD3 epsilon-delta): 295000 M⁻¹ s⁻¹ | Kd [1]: 12.2 nM | koff [1]: 0.00183 s⁻¹ | kon [1]: 150000 M⁻¹ s⁻¹ | Kd [2]: 3.01 nM | koff [2]: 0.000433 s⁻¹ | kon [2]: 144000 M⁻¹ s⁻¹ | Kd [3]: 1.32 nM | Kd [4]: 6.18 nM | Kd [5]: 4.65 nM | koff [5]: 0.000457 s⁻¹ | kon [5]: 98200 M⁻¹ s⁻¹ | T84 tumor cell EC50 (T cell cytotoxicity, E:T 5:1) [6]: 0.07 nM | EC50 (Human GUCY2C ECD-muIgG2a): 0.705 nM | Kd [7]: 3.61 nM | koff [7]: 0.001 s⁻¹ | kon [7]: 280000 M⁻¹ s⁻¹ | T84 tumor cell EC50 (T cell cytotoxicity, E:T 5:1) [8]: 0.07 nM | Kd [9]: 4.35 nM | koff [9]: 0.000369 s⁻¹ | kon [9]: 85500 M⁻¹ s⁻¹

B2: GUCY2C_ECD Peptide 19 (peptide)
peptide: NSGDCRSSTCEGLDLLRKIS
notes: also called GUCY2c peptide 19; GUCY2c-ECD peptide number 19
IC50 (read off the curve) (GUCY2C-1608): ~100 nM

B3: 9H3 (antibody)
heavy: QVQLQQPGAELVKPGASVKLSCKASGYTFTSYWMHWVKQRPGQGLEWIGEIKPSNGLTNYIEKFKNKATLTVDKSATTAYMQLSSLTAEDSAVYYCTRTITTTEGYWFFDVWGAGTTVTVSSAKTTPPSVYPLAPGSAAQTNSMVTLGCLVKGYFPEPVTVTWNSGSLSSGVHTFPAVLQSDLYTLSSSVTVPSSTWPSETVTCNVAHPASSTKVDKKIVPRDCGCKPCICTVPEVSSVFIFPPKPKDVLTITLTPKVTCVVVDISKDDPEVQFSWFVDDVEVHTAQTQPREEQFNSTFRSVSELPIMHQDWLNGKEFKCRVNSAAFPAPIEKTISKTKGRPKAPQVYTIPPPKEQMAKDKVSLTCMITDFFPEDITVEWQWNGQPAENYKNTQPIMDTDGSYFVYSKLNVQKSNWEAGNTFTCSVLHEGLHNHHTEKSLSHSPGK
light: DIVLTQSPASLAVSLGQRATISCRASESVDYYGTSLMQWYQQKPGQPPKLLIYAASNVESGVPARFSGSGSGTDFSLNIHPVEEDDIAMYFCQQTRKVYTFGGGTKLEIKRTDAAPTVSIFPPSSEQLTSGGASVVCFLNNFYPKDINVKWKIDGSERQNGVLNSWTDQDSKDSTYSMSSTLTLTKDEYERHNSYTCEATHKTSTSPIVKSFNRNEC
notes: Tested as hybridoma antibody; also called GUCY2C-9H3
binding result [10]: binds | binding result [11]: binds

Reference: patent publication US20230340151A1 (Pfizer, published 2023)
